{"source": "patent US20110287979A1", "about": "(ONCOMED PHARMACEUTICALS, published 2011)", "binders": {"B1": {"name": "heterodimeric antibody molecule: single chain anti-DLL4 antibody sc21M18 associated with the Membrane-MAb(hIgG2)-GFP protein on the surface of HEK-293 cells (antibody)", "chain 1": "DIVMTQSPDSLAVSLGERATISCRASESVDNYGISFMKWFQQKPGQPPKLLIYAASNQGSGVPDRFSGSGSGTDFTLTISSLQAEDVAVYYCQQSKEVPWTFGGGTKVEIKRTVAAPSVFIFPPSDEQLKSGTASVVCLLNNFYPREAKVQWKVDNALQSGNSQESVTEQDSKDSTYSLSSTLTLSKADYEKHKVYACEVTHQGLSSPVTKSFNRGECGGGGGSGGGGSGGGGSGGGGSGGGGSGGGGSQVQLVQSGAEVKKPGASVKISCKASGYSFTAYYIHWVKQAPGQGLEWIGYISSYNGATNYNQKFKGRVTFTTDTSTSTAYMELRSLRSDDTAVYYCARDYDYDVGMDYWGQGTLVTVSSASTKGPSVFPLAPCSRSTSESTAALGCLVKDYFPEPVTVSWNSGALTSGVHTFPAVLQSSGLYSLSSVVTVPSSNFGTQTYTCNVDHKPSNTKVDKTVERKCCVECPPCPAPPVAGPSVFLFPPKPKDTLMISRTPEVTCVVVDVSHEDPEVQFNWYVDGVEVHNAKTKPREEQFNSTFRVVSVLTVVHQDWLNGKEYKCKVSNKGLPAPIEKTISKTKGQPREPQVYTLPPSREEMTKNQVSLTCLVKGFYPSDIAVEWESNGQPENNYKTTPPMLDSDGSFFLYSKLTVDKSRWQQGNVFSCSVMHEALHNHYTQKSLSLSPGK", "chain 2": "not shown", "notes": "also called anti-DLL4 antibody molecule"}}, "molecular_target": "T1, hJag1-rFc (human; rabbit, UniProt P78504 34-1067; P01870 96-323, limits assumed)", "T1 construct": "also called hJag-rFc; control antigen", "T1 sequence (P78504 other isoform, or with tags, fused parts or gaps limits assumed)": "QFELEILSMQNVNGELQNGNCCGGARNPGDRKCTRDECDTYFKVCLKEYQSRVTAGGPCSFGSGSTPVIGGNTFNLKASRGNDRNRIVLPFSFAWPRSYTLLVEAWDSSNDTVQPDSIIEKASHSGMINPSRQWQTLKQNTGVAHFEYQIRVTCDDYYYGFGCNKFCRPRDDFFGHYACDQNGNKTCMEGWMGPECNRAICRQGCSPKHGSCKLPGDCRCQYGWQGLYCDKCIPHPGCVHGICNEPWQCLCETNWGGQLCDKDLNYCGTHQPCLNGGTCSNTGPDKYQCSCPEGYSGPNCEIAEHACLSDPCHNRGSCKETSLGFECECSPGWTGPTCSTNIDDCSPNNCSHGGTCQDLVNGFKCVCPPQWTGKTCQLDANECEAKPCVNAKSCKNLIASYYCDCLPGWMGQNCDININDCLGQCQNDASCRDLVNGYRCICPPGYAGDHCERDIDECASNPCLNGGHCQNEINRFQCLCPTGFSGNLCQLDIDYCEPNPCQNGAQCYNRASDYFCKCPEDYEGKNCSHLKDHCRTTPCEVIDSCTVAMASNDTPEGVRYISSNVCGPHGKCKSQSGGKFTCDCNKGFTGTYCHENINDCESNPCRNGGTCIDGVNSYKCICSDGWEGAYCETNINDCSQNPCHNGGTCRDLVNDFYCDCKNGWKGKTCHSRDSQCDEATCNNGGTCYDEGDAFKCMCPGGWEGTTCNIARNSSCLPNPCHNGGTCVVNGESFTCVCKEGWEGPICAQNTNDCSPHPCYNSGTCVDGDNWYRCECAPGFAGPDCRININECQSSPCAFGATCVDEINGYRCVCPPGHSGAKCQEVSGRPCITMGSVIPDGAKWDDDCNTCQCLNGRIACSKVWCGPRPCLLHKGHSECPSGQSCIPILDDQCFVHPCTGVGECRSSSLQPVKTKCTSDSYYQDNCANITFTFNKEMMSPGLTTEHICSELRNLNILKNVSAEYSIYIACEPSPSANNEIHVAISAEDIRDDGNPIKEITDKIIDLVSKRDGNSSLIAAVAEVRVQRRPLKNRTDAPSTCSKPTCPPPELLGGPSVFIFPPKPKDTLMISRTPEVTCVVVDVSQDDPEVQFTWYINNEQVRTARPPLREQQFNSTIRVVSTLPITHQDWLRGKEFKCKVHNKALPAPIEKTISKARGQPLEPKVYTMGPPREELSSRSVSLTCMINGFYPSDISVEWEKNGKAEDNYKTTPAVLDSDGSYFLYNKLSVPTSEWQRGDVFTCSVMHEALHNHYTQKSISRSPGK", "experiment": "FACS of transfected HEK-293 cells incubated with hJag-rFc and PE-labeled anti-rabbit Fc antibody", "method": "The effect of carrier plasmid on the transfection and display of an Ab-encoding plasmid was tested. The single chain anti-DLL4 antibody (sc21M18) described above was transfected with varying ratios of carrier plasmid. In this study, the carrier plasmid encoded an irrelevant […] antibody (sc18R5). The cells were also transfected with the Membrane-MAb(hIgG2)-GFP construct. The concentration of Ab library plasmid in the cells could be inferred from the level of surface expression of the anti-DLL4 antibody molecule. Approximately 5×10⁶ HEK-293 cells were transfected with plasmid DNA and harvested after 48 hours. The plasmid DNA was a mixture of sc21M18 and sc18R5, wherein the ratio of sc21M18 to sc18R5 varied from 1 to 10,000-fold excess of sc18R5 (1, 10, 100, 1000 or 10,000-fold excess). For detection of a functional anti-DLL4 antibody molecule on the cell surface, transfected cells were incubated with an hDLL4-rFc fusion protein. Bound hDLL4-rFc was detected with a PE-labeled anti-rabbit Fc antibody. The percentage of cells which expressed anti-DLL4 antibody was determined by FACS analysis. Cells were also incubated with a control antigen (hJag-rFc, -▪-) or only the PE-labeled anti-rabbit Fc antibody (-▴-).", "data": [{"binder": "B1", "values": [{"measurement": "binding result", "result": "no binding"}]}]}
